Results as given in a protein production outcome set (Wang et al. 2014).

Assay: label from the status in PepcDB records
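Further: failed if final PepcDB status was selected cloned or expressed and not failed if soluble or beyond.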

With “MEKISDLIECIAYEKNLPKEMISKVIQGCLLKMAQNELDPLARYLVVEENKQLQLIQLVEVLEDGDERLVNDPSKYISLSKAKEMDPSVKIKDELSYSLSLESMKQGAINRLFKDLQYQLEKALEDSHFEAFQKRLNSVLMGQVILVDHNQNTFIEIEQQFQGVLSMRHRIKGESFKVGDSIKAVLTQVKRTKKGLLLELSRTTPKMLEALLELEVPEIKDKEIEIIHCARIPGNRAKVSFFSHNARIDPIGAAVGVKGVRINAISNELNKENIDCIEYSNVPEIYITLALAPAKILSVEIKKIPIEELNAEEKESIQERFIVNNHLQKAKVRLLDIEKSKAIGKGGVNVCLASMLTGYHIEFETIPSVKENAENESEKETPKVGVEALESLFKNLEHHHHHH” the protein production was “not failed”.

For “MYMAQPGHIDHIKQINAGRVYKLIDQKGPISRIDLSKESELAPASITKITRELIDAHLIHETTVQEAISRGRPAVGLQTNNLGWQFLSMRLGRGYLTIALHELGGEVLIDTKIDIHEIDQDDVLARLLFEIEEFFQTYAAQLDRVTSIAITLPGLVNSEQGIVLQMPHYNVKNLALGPEIYKATGLPVFVANDTRAWALAEKLFGHSQDVDNSVLISIHHGLGAGIVLDGRVLQGRHGNIGELGHIQIDPQGKRCHCGNYGCLETVASSQAIRDQVTARIQAGEPSCLATVEEISIEDICAAAADGDPLAVDVIQQLGRYLGAAIAIVINLFNPEKILIGGVINQAKSILYPSIEQCIREQSLPVYHQDLKLVESRFYKQATMPGAALIKQALYDGLLLMKVVEG”, the protein production was “not failed”.

In the case of “GSSILDRAVIEHNLLSASKLYNNITFEELGALLEIPAAKAEKIASQMITEGRMNGFIDQIDGIVHFETREA”, the protein production is reported as “not failed”.

For “MAFSPLCGVNCTSRPSASTINTFLTKAQHDVTLTDTDTRIFIKNIKTGVTMEQFRNSLQEFGAMQVYFYEPGSNNDGWAWVGFENKEAALKVIEESEKMQEEMNEENLNEMQNEDNEEQGSNSFYAEDEDKKDEEEEEEEEEY”, the protein production was “failed”.

In the case of “MVGIYIGSTAAAAGKNLACMALGLVLGRDGRSVGYMKPYGQRPRMVDDRTGDIDAMLVQEVLGQNADPEVVTPVVEPANIRAMSLRGGNALERVGAAYTALARGRDVMLVGGTGSLFHTGRARGLDGLALVRRLDLRVVLVERYHPHPEGGGIDHDAILYAADVLGDRLAGVLLNDLPESYQRDAEEVLVPYLAEHGVRVLGLVPHDPLLHAIRASDLAVRLGGRLVCGGKGSQRLVEGFLIGTMQVENFMSHFRRHANTATIVGGDRTDLQLVALEGQCPCLVLTGNMPPDELIRQRSEQHGAPVIVVREDTYTVARKMEEILNSQKLRDLVTIRRGADIVAGALDRAALLAQTGIPKGENR”, the protein production is reported as “failed”.

In the case of “MSTQFKLPLASPLTHGREDFAVSPSNGEAVARLDAWPDWAEGRLVLVGPAGCGKSHLARAWAAAAGAVVVEAANPDAASVDLSALRGRAVLVEDADRRAQGAAVSDEALFHILNMAGVDGGTVLLTGRTAPLTWSAEVADLRSRLNALSVAEIAEPDDAVLEAVLRRAFAAAWWKPEPDLYPYLLARLPRSAAEAQAAAALLAEAAADGRRELTKALAREVLEGFEGDEGLEHHHHHH”, the protein production is reported as “failed”.

With “MGGNETRELPIINLSDKNLKQNTELWSFTRDSVREAMEHHGWFVAEYNNFPTGLHQSILEAAKELLDLPVEIKLKNENHKAGHGYITMMSDGQPVHEGLGIDQVNDVQQCRGFSRLMWPDDHDDNDRFCETVHAYAKMQAELEQLVIRMLFESYNVEKYTEKYIGGTRYLLRLLKYRRLPNGEPNRKFISHTDKSFISILHQNHITGLMLKSEKEDVWYHFTPSPTRFVVIAGDAIMAWSNDRIKACYHKVEMESVEMRYSLGFFSFQEGMISTPEEMVDKDHPLAYNPFHHDGLLEYYETLEVHLKAHRTMTKAYCGIP” the protein production was “failed”.

With “MSRDTERYPVKHANSLWQIYKTVPFWKVVKNFVVIQLARYTPFVSVKNWLYRTFLKMDVGEKTAFALMVMPDIMFPERISVGRNSIIGYNTTILAHEYLIEEYRLGDVIIGDEVMVGANTTILPGVTIGDRAIIAAGTVVHKNVPPGAFVGGNPMQVIKQLEHHHHHH” the protein production was “failed”.

In the case of “MPGIDIVIVNWNSGNQLRECLRSIGNLVGEAEPLTVTVVDNASCDGSADGLPEPSCPLRVIRNRANLGFGRASNLGAREGSADYLLFLNPDTRLHPGALSIPLGFMESETGRHVGICGVQCLDETGGVARCCARFPTAWRLVGQALGLDRLFPRWIPPHFLGEWPHDSDRDVDQVIGAFFFVRRAVFEQLGGFDERFFVYYEDLDFALRARRAGWGSRYLAGARIFHRGGGVSRQISARRLHYLTHSKLRYARKHFAGIDAFLVSAAVLLLEPLARSAYALGRGRPGEFADTWKAFGGLYASLCRPGENGRLEHHHHHH”, the protein production is reported as “failed”.

For “MTTKRVNTATNKIMTLNTFLDTCFLLFISILFYLSIPIYPNKVVVVPQGSLKKVFFSLKEQGVDMNALDLLFLRLMGMPKKGYIDMGDGALRKGDFLVRLIKAKAAQKSATLIPGESRYFFTQILSETYQLETSDLNQAYESIAPRLNGEVIEDGVIWPDTYHLPLGEDAFKIMQTLIGQSMKKHEALSKQWLGYYHKEEWFEKIILASIVQKEAANVEEMPLIASVIFNRLKKGMPLQMDGALNYQEFSHAKVTKERIKTDNTPYNTYKFKGLPKNPVGSVSLEAIRAVIFPKKTDFLYFVKMPDKKHAFSATYKEHLKNINLSNNHF”, the protein production was “failed”.

With “RSAEALFEKAVTPSDVGKLNRLVIPKHHAEKHFPLPSSNVSVKGVLLNFEDVNGKVWRFRYSYWNSSQSYVLTKGWSRFVKEKNLRAGDVVSFSRSNGQDQQLYIGWKSRSGSDLDA” the protein production was “not failed”.

For “MAGRFAPRPPRAVVRDGIPRQALAPGRVRVWAPDGPLDVGLVLGPLRRGPGDPTFRTMPDGSVWRTGRTPAGPGTLRVTARGGEVRGEAWGPGAEWLLERLPLMLGAEDDPSAFVPRHRLLAVTAHRRPGLRLTRTGLVLESLIPSILEQKVTTLEAYQAWRLLVRKFGEPAPGPAPGRMCVMPAARTWALIPSWEWHLAGVDDKRASTVLRAVRVAARLEEAAGMEPAAARERLELVPGVGPWTSAETVQRSHGAPDAVTVGDLHLPGIVGFALGGDRYADDAEMLRLLEPYAGQRHRAARLVLLSGRVPERRAPRMAPRGIERL”, the protein production was “failed”.

For “MTQLQISLLLTATISLLHLVVATPYEAYPIGKQYPPVARVNESFTFQISNDTYKSSVDKTAQITYNCFDLPSWLSFDSSSRTFSGEPSSDLLSDANTTLYFNVILEGTDSADSTSLNNTYQFVVTNRPSISLSSDFNLLALLKNYGYTNGKNALKLDPNEVFNVTFDRSMFTNEESIVSYYGRSQLYNAPLPNWLFFDSGELKFTGTAPVINSAIAPETSYSFVIIATDIEGFSAVEVEFELVIGAHQLTTSIQNSLIINVTDTGNVSYDLPLNYVYLDDDPISSDKLGSINLLDAPDWVALDNATISGSVPDELLGKNSNPANFSVSIYDTYGDVIYFNFEVVSTTDLFAISSLPNINATRGEWFSYYFLPSQFTDYVNTNVSLEFTNSSQDHDWVKFQSSNLTLAGEVPKNFDKLSLGLKANQGSQSQELYFNIIGMDSKITHSNHSANATSTRSSHHSTSTSSYTSSTYTAKISSTSAAATSSAPAALPAANKTSSHNKKAVAIACGVAIPLGVILVALICFLIFWRRRRENPDDENLPHAISGPDLNNPANKPNQENATPLNNPFDDDASSYDDTSIARRLAALNTLKLDNHSATESDISSVDEKRDSLSGMNTYNDQFQSQSKEELLAKPPVQPPESPFFDPQNRSSSVYMDSEPAVNKSWRYTGNLSPVSDIVRDSYGSQKTVDTEKLFDLEAPEKEKRTSRDVTMSSLDPWNSNISPSPVRKSVTPSPYNVTKHRNRHLQNIQDSQSGKNGITPTTMSTSSSDDFVPVKDGENFCWVHSMEPDRRPSKKRLVDFSNKSNVNVGQVKDIHGRIPEML”, the protein production was “failed”.

In the case of “MSRRGLEREGGKPVSSDAKGLKRVDVRLKWDPSPWDRPPHHLDIIATTYAADAPHGRPVYVVQFDKRSPDGTINMSRHSRTGQGFGFVEEMTFELDRLSPSIARVIVGVAIHQDNGHKTFDDVSNTGVVVAEGYRELLTDGFERVAGATAATVAEFTRNASGAWEFREAVRGFDSDPVLFATEMGSAPRP”, the protein production is reported as “not failed”.

In the case of “ILTTENQGVFTITLNRIDKKNALTNDMYKQLCQYFAYAEQTSSIHCVVIQGNEQCFCAGNDLHDFIQCSADDELAALAFVKVLSEFTKPLVAGVAGVAVGIGTTLLLHCDMVIAANNSKFKLPFTQLGLCPEAGSSLLLTQKVGPNKAFELMVLGQTFNAEQALSYGITNQTCQPDELLALTSDVAQAISNLPVESVMTSRRLIRQANKLALSQVISEESQAFSHLVKSEECKNILAKFFK”, the protein production is reported as “failed”.

With “MAKVLVLNASYEPLNITHWQRAVVLLLKDKAEALENNGKLIYANFPLPSVIRLRQYIKVPYKEIPLTRRNVLERDRHTCQYCNYKGEQLTLDHVIPRSRGGGDSWENLVTACVRCNIKKGNRTPREAQMSLNYTPRRPYSSLLFEIIKHTRNDRNHEWRKYVIGILEHHHHHH” the protein production was “failed”.

In the case of “MASDINAKLRQKQYEAAVLEFAGDRKGYFVVASDDPQFASLLRQTLTKHLAIPGDAMSTVANPDHILRELKNVTMRRKTVLLFLERILEGRDTNLLVRQLKSAYPDLKIIVITGETERNRLVLLHEVGADNFITKPVSMNTLIEKMAFTIKPLGKLGQLIDQAREFVHQNLPEQGIKLCRQILELKPGSAAGYLVMGEAYQHLGKLDKARECYEEASRNAELYLEPLRRLADIHGEMGEPTEQLRYLERLDQLSPLNVERKVDMGAIHLELGNQEKADELFDTAVQQATREALSYIADISGRIAGIYNGRDPQRAEHFLRRALDAKGDMLDASDLDTFNRLGIALRRQGKWQEALTEYHKALRVAPEDENLFYNMGMACAEGRDFREARANMLKALTINPELPRRDPVMAYNIGLVFMRAGGREYAERCLNIALELDPGFTKAREALERLG”, the protein production is reported as “failed”.

For “MSKLTLGSYPHMLGFEQLERLLERSAKSGNEGYPPYNIEQTSETSYRITLAVAGFAEADLSITVEDRQLVIRGRQSDDSEGRVFLHRGIAARQFQRMFVLAEGVEVGEAVMENGLLHVDLSRAVPQSVVQTINIRKG”, the protein production was “failed”.

In the case of “MVFIDNLGLMLFILPLVSVLIAYTTVQAFIGFRKTGYEAIKRSLDDSILPAAILGTIIIILSLWGEFSWTLPGSYNILFYDVYLLLGITILSYSVTVYMGKRLQSTGIFALFVGLITIYYGASGYNLGLTKEPLALLALYTTYGIAGILGYPVTLALDRLRDQQGVKDPKLEGWMYAFFILFWIFVIIAGIIGAFIAVETIPAHLAHPP”, the protein production is reported as “failed”.

For “MSVVTESKTARKWAMPDTLVIIFFVAILTSIATWVVPVGMFDSQEVQYQVDGQTKTRKVVDPHSFRIVTNEAGEAQYHRVQFFTTGDERPGLMNFPFEGLTSGSKFGTAVGIIMFMLVIGGAFGIVMRTGTVDNGILALIRHTRGNEVLFIPVLFVLFSLGGAVFGMGKEAVAFAIIIAPLMVRLSYDSITTVLVTYIATQIGFASSWMNPFCVVVAQGIAGVPVLSGSGLRIVVWIVATLIGLVFTLVYASRVKKNPLLSRVHESDRYFREQQDEVVQRPFTFGDWLVLLVLTGVMIWVVWGVIVHAWFIPEIASQFFTMGVVIGLIGVIFRLNGMTVNVMASSFTEGARMMIAPALLVGFAKGILLLVGNGEAGEPSVLNTLLNSIAHGISGLNNAIAAWFMLLFQAVFNFFVTSGSGQAALTMPLLAPLGDLVGVNRQVTVLAFQFGDGFSHIIYPTSASLMATLGVCRVDFRNWLKVGASLLGLLFIMSSVVVIGAQMMGYH”, the protein production was “failed”.

With “MRLDLSAKFRQVLGLAKDHASIGRAIVQNYNEKAFFDIEVAVVRATSHDDCPVDDKTMHEILFLVSNTPGSIPFLAEQISRRLAKTRDCLVAGKTLLLFHRLLRGSSRSIEQQLHIAHTSGHLQIGCSWFMMSLDSRSFVFLQNYVAYLQERVGWIINQAGKLEPVMSGGTKFSRYKEKSMDLVFHILPKCQEFIAQVLKCSPVDAWPIDNLVQAATGNILKESFQVYMTYSDGMTALVSMLFDLSRPARDLACGMLRKASQQIQDLRILYDKCRGFAGMKSLDYPSVQAISMDHIVALEECSSYGGKRGFSLSTNLRDAITCNELKQEQHSASFSSTSPFSLPVETKISMVWVVFDNEDGEESDKQTEKAYER” the protein production was “failed”.
